Source: patent WO2021218879A1 (dated 2021)
Read-outs that look alike come from different tables or passages of the source.

How the values were obtained:
[1] = target: T1, SARS-CoV-2 S full-length protein on pseudovirus (SARS-CoV-2, UniProt P0DTC2 14-1273); assay: cell-based or functional assay
[2] = target: T2, SARS-CoV-2 ECD protein (SARS-CoV-2, UniProt P0DTC2 14-1213); assay: ELISA, ECD protein coated at varied concentration, antibody at 1 ug/mL
T2 construct: extracellular domain

[3] = target: T3, SARS-CoV-2 RBD protein (SARS-CoV-2, UniProt P0DTC2 319-541)
[4] = target: T4, SARS-CoV-2-S1-his protein (SARS-CoV-2, UniProt P0DTC2 16-685)
[5] = target: T4, SARS-CoV-2-S1-his protein; assay: ELISA, S1 protein coated at varied concentration, antibody at 1 ug/mL
[6] = target: T5, SARS-CoV-2 S1 protein on HF-nCoV-SPIKE-8D3 cells (SARS-CoV-2, UniProt P0DTC2 14-1273); assay: flow cytometry on HF-nCoV-SPIKE-8D3 cells, titrated antibody
T5 construct: whole, on cells

[7] = target: T4, SARS-CoV-2-S1-his protein; assay: BLI (OctetRED96e), biotinylated S1 on SA sensor, antibody in solution
[8] = target: T3, SARS-CoV-2 RBD protein; assay: ELISA, RBD protein coated at varied concentration, antibody at 1 ug/mL
[9] = target: T6, CD32a-AVI-His(R131)+BirA protein (UniProt P12318 36-218); assay: ELISA, biotinylated CD32a captured on avidin, titrated antibody
T6 sequence: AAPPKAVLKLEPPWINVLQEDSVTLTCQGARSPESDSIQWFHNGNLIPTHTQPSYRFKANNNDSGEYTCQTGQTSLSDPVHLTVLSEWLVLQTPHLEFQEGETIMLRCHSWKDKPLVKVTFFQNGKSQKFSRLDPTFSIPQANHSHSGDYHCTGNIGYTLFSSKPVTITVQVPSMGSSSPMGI

[10] = target: T7, CD32b-AVI-HIS+BirA protein (UniProt P31994 43-217); assay: ELISA, biotinylated CD32b captured on avidin, titrated antibody
T7 sequence: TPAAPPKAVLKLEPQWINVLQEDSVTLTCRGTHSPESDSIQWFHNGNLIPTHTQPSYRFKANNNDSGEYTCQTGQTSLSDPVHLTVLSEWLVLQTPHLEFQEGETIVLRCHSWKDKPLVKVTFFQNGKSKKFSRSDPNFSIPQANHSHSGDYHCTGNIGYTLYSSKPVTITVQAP

[11] = target: T1, SARS-CoV-2 S full-length protein on …; assay: cell-based or functional assay; remark: listed apart in the source
[12] = target: T2, SARS-CoV-2 ECD protein; assay: ELISA, ECD protein coated at varied concentration, antibody at 1 ug/mL; remark: listed apart in the source
[13] = target: T4, SARS-CoV-2-S1-his protein; remark: listed apart in the source
[14] = target: T4, SARS-CoV-2-S1-his protein; assay: ELISA, S1 protein coated at varied concentration, antibody at 1 ug/mL; remark: listed apart in the source
[15] = target: T3, SARS-CoV-2 RBD protein; assay: BLI (OctetRED96e), biotinylated RBD on SA sensor, antibody in solution
[16] = target: CD16a-AVI-His(V158)+BirA protein (UniProt P08637 17-208); assay: ELISA, biotinylated CD16a captured on avidin, titrated antibody
Sequence of CD16a-AVI-His(V158)+BirA protein (P08637 17-208 F176V limits assumed): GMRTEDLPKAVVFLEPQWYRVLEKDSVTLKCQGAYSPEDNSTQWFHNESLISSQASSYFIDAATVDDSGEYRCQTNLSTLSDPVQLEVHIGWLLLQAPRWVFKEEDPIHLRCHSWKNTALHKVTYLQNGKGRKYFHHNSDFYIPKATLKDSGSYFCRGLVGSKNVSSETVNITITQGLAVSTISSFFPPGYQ

[17] = target: CD64-AVI-His+BirA protein (UniProt P12314 16-288); assay: ELISA, biotinylated CD64 captured on avidin, titrated antibody
Sequence of CD64-AVI-His+BirA protein (P12314 16-288 limits assumed): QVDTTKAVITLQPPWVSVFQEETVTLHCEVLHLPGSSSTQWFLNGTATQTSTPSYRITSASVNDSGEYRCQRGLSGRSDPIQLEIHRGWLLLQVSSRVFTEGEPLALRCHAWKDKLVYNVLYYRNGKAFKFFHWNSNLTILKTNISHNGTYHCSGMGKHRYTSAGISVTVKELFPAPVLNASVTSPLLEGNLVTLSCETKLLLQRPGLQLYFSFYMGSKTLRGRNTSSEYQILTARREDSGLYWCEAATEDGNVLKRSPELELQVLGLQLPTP

B1: human-mouse chimeric antibody CoV2-mhB27 (antibody, V domains shown)
VH: EVKLVESGGGLVKPGGSLKLSCAASGFTFSNYGMSWVRQSPEKRLEWVAEISSGGSYTYYPDTVTGRFTISRDNAKNTLYLEMSSLRSEDTAMYYCARFRYDGGGGTVDYWGQGTSVTVSS
VL: not shown
notes: also called murine antibody CoV2-mhB27
In the case of B1, the “neutralization IC50, SARS-CoV-2 pseudovirus on 293FT-ACE2 cells (luciferase)” value [1] is reported as 0.0087 µg/mL, the EC50 [2] is reported as 0.307 µg/mL and the EC50 [3] is reported as 0.044 µg/mL. It also gave an EC50 [4] of 0.024 µg/mL, an EC50 [5] of 0.116 µg/mL and an EC50 [6] of 2.77 µg/mL.

B2: humanized antibody CoV2-HB27 (antibody)
heavy: not shown
light: EIVLTQSPATLSLSPGERATLSCRASESVDNYGISFMNWFQQKPGQAPRLLIYAASNQGSGVPARFSGSGSGTDFSLTISSLEPEDFAVYFCQQSKEVPRTFGQGTKVEIKRTVAAPSVFIFPPSDEQLKSGTASVVCLLNNFYPREAKVQWKVDNALQSGNSQESVTEQDSKDSTYSLSSTLTLSKADYEKHKVYACEVTHQGLSSPVTKSFNRGEC
notes: also called IgG1 subtype CoV2-HB27 antibody; CoV2-HB27-IgG1
B2 was tested, and the Kd [7] was 0.37 nM, the koff [7] was 0.00039 s⁻¹ and the kon [7] was 1.1e+06 M⁻¹ s⁻¹. The EC50 [8] was 0.0222 µg/mL, the binding result [9] was “binds” and the binding result [10] was “binds”. The “neutralization IC50, SARS-CoV-2 pseudovirus on 293FT-ACE2 cells (luciferase)” value [11] was 0.0059 µg/mL, the EC50 [12] was 0.972 µg/mL and the EC50 [13] was 0.179 µg/mL. For the same binder, the EC50 [14] was 0.183 µg/mL, the Kd [15] was 0.039 nM and the koff [15] was 1.4e-05 s⁻¹. For the same binder, the kon [15] was 370000 M⁻¹ s⁻¹ and the binding result [16] was “binds”.

B3: CoV2-HB27-Ae0-IgG1 (antibody)
heavy: not shown
light: EIVLTQSPATLSLSPGERATLSCRASESVDNYGISFMNWFQQKPGQAPRLLIYAASNQGSGVPARFSGSGSGTDFSLTISSLEPEDFAVYFCQQSKEVPRTFGQGTKVEIKRTVAAPSVFIFPPSDEQLKSGTASVVCLLNNFYPREAKVQWKVDNALQSGNSQESVTEQDSKDSTYSLSSTLTLSKADYEKHKVYACEVTHQGLSSPVTKSFNRGEC
notes: also called Ae0-IgG1 form antibody; defucosylated IgG1 subtype CoV2-HB27
B3: binds [9]; binds [10]; binds [16].

B4: CoV2-HB27-Fd6-IgG1 (antibody)
heavy: not shown
light: EIVLTQSPATLSLSPGERATLSCRASESVDNYGISFMNWFQQKPGQAPRLLIYAASNQGSGVPARFSGSGSGTDFSLTISSLEPEDFAVYFCQQSKEVPRTFGQGTKVEIKRTVAAPSVFIFPPSDEQLKSGTASVVCLLNNFYPREAKVQWKVDNALQSGNSQESVTEQDSKDSTYSLSSTLTLSKADYEKHKVYACEVTHQGLSSPVTKSFNRGEC
notes: also called Fd6-IgG1 form antibody; reduced Fc function IgG1 subtype humanized antibody
B4: binds [17]; no binding [9]; no binding [10].
